Values of other authors as cited in paper PMC2646799.
pKd: −log10 of the molar value.

Target: histone H3 acetyl-K9 peptide (Homo sapiens) (UniProt P68431)

For Polybromo-1 BrD3 (from UniProt Q86U86), the pKd is given as 6.00.
